The chains are these.
B1: TCAP (parent)
chain: YQRVLPLPIFTPAKMGATKEERED
B2: PDLIM4 (parent)
chain: FLDERLYCESHAKARVKPPEGYDV
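Further: lentivirally expressed fusions sorted by FACS into six bins by GFP to DsRed ratio, PSI derived from sequencing read proportions per bin multiplied by bin number.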

In one data set the parent is B1. Nature of the data set: protein stability index of a GFP-peptide fusion (GPS, HEK-293T) (PSI 1-6); higher = more stable. Particulars: c terminus: a fixed tail appended.
On to YHRVLPLPIFTPAKMGATKEERED [Q2H], for which the protein stability index came to 2.07.

For the variant YGRVLPLPIFTPAKMGATKEERED [Q2G], the protein stability index was 1.41.

As for YDRVLPLPIFTPAKMGATKEERED [Q2D], the protein stability index was determined as 3.35. The same measure, in the same setting: the same measure for YCRVLPLPIFTPAKMGATKEERED [Q2C]: 1.99; for YARVLPLPIFTPAKMGATKEERED [Q2A]: 1.92; for YFRVLPLPIFTPAKMGATKEERED [Q2F]: 3.21. On the same count and under the same terms, as for YERVLPLPIFTPAKMGATKEERED [Q2E], the figure is 3.53; as for KQRVLPLPIFTPAKMGATKEERED [Y1K], 5.06; as for NQRVLPLPIFTPAKMGATKEERED [Y1N], 5.03. The same measure, in the same setting: the same measure for PQRVLPLPIFTPAKMGATKEERED [Y1P]: 5.44.

With AQRVLPLPIFTPAKMGATKEERED [Y1A], the protein stability index was found to be 5.43. Same read-out and setting: the same measure for MQRVLPLPIFTPAKMGATKEERED [Y1M]: 4.64; for WQRVLPLPIFTPAKMGATKEERED [Y1W]: 2.93. Same read-out and setting: the same measure for RQRVLPLPIFTPAKMGATKEERED [Y1R]: 4.53; for IQRVLPLPIFTPAKMGATKEERED [Y1I]: 3.9. On the same count and under the same terms, the same measure for TQRVLPLPIFTPAKMGATKEERED [Y1T]: 4.79. QQRVLPLPIFTPAKMGATKEERED [Y1Q]: the protein stability index is 5.25. Still for that read-out and setting: as for SQRVLPLPIFTPAKMGATKEERED [Y1S], the figure is 5.4; as for GQRVLPLPIFTPAKMGATKEERED [Y1G], 4.97; as for FQRVLPLPIFTPAKMGATKEERED [Y1F], 2.09. For the variant CQRVLPLPIFTPAKMGATKEERED [Y1C], the protein stability index came out at 4.53. The same measure, in the same setting: the same measure for HQRVLPLPIFTPAKMGATKEERED [Y1H]: 4.68; for EQRVLPLPIFTPAKMGATKEERED [Y1E]: 5.33; for DQRVLPLPIFTPAKMGATKEERED [Y1D]: 5.35.

As to LQRVLPLPIFTPAKMGATKEERED [Y1L], the protein stability index turned out to be 4.21. Turning to VQRVLPLPIFTPAKMGATKEERED [Y1V], the protein stability index was 4.33.

In another data set the parent is B2. Described as above. The settings on record: c terminus: a fixed tail appended.
For FLDERLYCESHAKARVKPPEGMDV [Y22M], the protein stability index came to 1.37. As to FLDERLYCESHAKARVKPPEGADV [Y22A], the protein stability index worked out at 1.32. On the same count and under the same terms, as for FLDERLYCESHAKARVKPPEGTDV [Y22T], the figure is 2.29; as for FLDERLYCESHAKARVKPPEGPDV [Y22P], 3.32; as for FLDERLYCESHAKARVKPPEGDDV [Y22D], 1.53. On the same count and under the same terms, the same measure for FLDERLYCESHAKARVKPPEGGDV [Y22G]: 2.68; for FLDERLYCESHAKARVKPPEGQDV [Y22Q]: 2.55. The same measure, in the same setting: the same measure for FLDERLYCESHAKARVKPPEGFDV [Y22F]: 1.43.

Consider FLDERLYCESHAKARVKPPEGWDV [Y22W], for which the protein stability index is 1.28. Still for that read-out and setting: as for FLDERLYCESHAKARVKPPEGNDV [Y22N], the figure is 2.65.

FLDERLYCESHAKARVKPPEGLDV [Y22L]: the protein stability index is 1.15. Consider FLDERLYCESHAKARVKPPEGIDV [Y22I], for which the protein stability index was 3. Still for that read-out and setting: the same measure for FLDERLYCESHAKARVKPPEGSDV [Y22S]: 1.04; for FLDERLYCESHAKARVKPPEGRDV [Y22R]: 2.71; for FLDERLYCESHAKARVKPPEGEDV [Y22E]: 2.43.

Consider FLDERLYCESHAKARVKPPEGCDV [Y22C], for which the protein stability index was found to be 2.75. The same measure, in the same setting: as for FLDERLYCESHAKARVKPPEGKDV [Y22K], the figure is 2.46; as for FLDERLYCESHAKARVKPPNGYDV [E20N], 2.28.

Take FLDERLYCESHAKARVKPPQGYDV [E20Q]: the protein stability index was 3.09. On the same count and under the same terms, the same measure for FLDERLYCESHAKARVKPPTGYDV [E20T]: 2.26; for FLDERLYCESHAKARVKPPLGYDV [E20L]: 1.1; for FLDERLYCESHAKARVKPPRGYDV [E20R]: 2.7. Still for that read-out and setting: the same measure for FLDERLYCESHAKARVKPPYGYDV [E20Y]: 2.28. The same measure, in the same setting: as for FLDERLYCESHAKARVKPPAGYDV [E20A], the figure is 2.53. As to FLDERLYCESHAKARVKPPHGYDV [E20H], the protein stability index was determined as 2.82.

For the variant FLDERLYCESHAKARVKPPIGYDV [E20I], the protein stability index was 2.65. Consider FLDERLYCESHAKARVKPPDGYDV [E20D], for which the protein stability index amounted to 1.74. With FLDERLYCESHAKARVKPPPGYDV [E20P], the protein stability index came to 3.31. On the same count and under the same terms, as for FLDERLYCESHAKARVKPPSGYDV [E20S], the figure is 1.4. The same measure, in the same setting: as for FLDERLYCESHAKARVKPPVGYDV [E20V], the figure is 3; as for FLDERLYCESHAKARVKPPGGYDV [E20G], 2.67; as for FLDERLYCESHAKARVKPPMGYDV [E20M], 2.03. For the variant FLDERLYCESHAKARVKPPEGYDN [V24N], the protein stability index is 2.32. On to FLDERLYCESHAKARVKPPEGYDP [V24P], for which the protein stability index was 2.53. The same measure, in the same setting: as for FLDERLYCESHAKARVKPPEGYDW [V24W], the figure is 1.91. For FLDERLYCESHAKARVKPPEGYDC [V24C], the protein stability index came out at 1.71. On the same count and under the same terms, the same measure for FLDERLYCESHAKARVKPPEGYDH [V24H]: 1.63; for FLDERLYCESHAKARVKPPEGYDI [V24I]: 2.47; for FLDERLYCESHAKARVKPPEGYDR [V24R]: 1.99. Take FLDERLYCESHAKARVKPPEGYDY [V24Y]: the protein stability index is 1.6. Still for that read-out and setting: the same measure for FLDERLYCESHAKARVKPPEGYDQ [V24Q]: 1.11. The same measure, in the same setting: as for FLDERLYCESHAKARVKPPEGYDL [V24L], the figure is 1.03; as for FLDERLYCESHAKARVKPPEGYDM [V24M], 2.12; as for FLDERLYCESHAKARVKPPEGYDA [V24A], 2.09. Still for that read-out and setting: the same measure for FLDERLYCESHAKARVKPPEGYDT [V24T]: 1.53; for FLDERLYCESHAKARVKPPEGYDS [V24S]: 2.82; for FLDERLYCESHAKARVKPPEGYDE [V24E]: 1.6. Consider FLDERLYCESHAKARVKPPEGYDG [V24G], for which the protein stability index was 1.51. Consider FLDERLYCESHAKARVKPPEGYDD [V24D], for which the protein stability index was 1.33. For FLDERLYCESHAKARAKPPEGYDV [V16A], the protein stability index came out at 1.75.

On to FLDERLYCESHAKARTKPPEGYDV [V16T], for which the protein stability index worked out at 3.71. Same read-out and setting: the same measure for FLDERLYCESHAKARKKPPEGYDV [V16K]: 3.09. On the same count and under the same terms, the same measure for FLDERLYCESHAKARRKPPEGYDV [V16R]: 1.5.

In the case of FLDERLYCESHAKARGKPPEGYDV [V16G], the protein stability index is 1.57.

Take FLDERLYCESHAKARNKPPEGYDV [V16N]: the protein stability index was 1.96. On the same count and under the same terms, the same measure for FLDERLYCESHAKARYKPPEGYDV [V16Y]: 1.51; for FLDERLYCESHAKARQKPPEGYDV [V16Q]: 1.22; for FLDERLYCESHAKARHKPPEGYDV [V16H]: 1.92. FLDERLYCESHAKARSKPPEGYDV [V16S]: the protein stability index worked out at 3.79.

Take FLDERLYCESHAKARMKPPEGYDV [V16M]: the protein stability index worked out at 1.53. On the same count and under the same terms, the same measure for FLDERLYCESHAKARPKPPEGYDV [V16P]: 1.64. Still for that read-out and setting: the same measure for FLDERLYCESHAKARCKPPEGYDV [V16C]: 1.43; for FLDERLYCESHAKARDKPPEGYDV [V16D]: 2.14; for FLDERLYCESHAKARWKPPEGYDV [V16W]: 2.7. Still for that read-out and setting: the same measure for FLDERLYCESHAKARIKPPEGYDV [V16I]: 1.62; for FLDERLYCESHAKARVPPPEGYDV [K17P]: 2.25. Consider FLDERLYCESHAKARVEPPEGYDV [K17E], for which the protein stability index came out at 2.08. The same measure, in the same setting: as for FLDERLYCESHAKARVDPPEGYDV [K17D], the figure is 1.27.

Values taken from the supplement of paper PMC10567573.
